{
  "source": "patent US20120159674A1",
  "biological_target": "Cry1Ab receptor proteins in brush border membrane vesicle (BBMV) preparations from the midgut of Heliothis zea larvae",
  "assay": "homologous competition with 0.25 nM ^125I Cry1Ab on H. zea BBMV (0.10 mg protein/ml)",
  "data": [
    {"substance": "Cry1Ab core toxin (trypsin truncated Cry1Ab)", "values": [
      {"measurement": "IC50", "result": 2, "unit": "nM"}
    ]}
  ]
}
